Experimental findings from doi:10.1101/2024.09.19.613683 (bioRxiv, 2024) are described below.

First the molecules themselves.
B1: tail sheath protein of phage 812 (natural protein, Staphylococcus phage 812)
chain: MAVEPFPRRPITRPHASIEVDTSGIGGSAGSSEKVFCLIGQAEGGEPNTVYELRNYSQAKRLFRSGELLDAIELAWGSNPNYTAGRILAMRIEDAKPASAEIGGLKITSKIYGNVANNIQVGLEKNTLSDSLRLRVIFQDDRFNEVYDNIGNIFTIKYKGEEANATFSVEHDEETQKASRLVLKVGDQEVKSYDLTGGAYDYTNAIITDINQLPDFEAKLSPFGDKNLESSKLDKIENANIKDKAVYVKAVFGDLEKQTAYNGIVSFEQLNAEGEVPSNVEVEAGEESATVTATSPIKTIEPFELTKLKGGTNGEPPATWADKLDKFAHEGGYYIVPLSSKQSVHAEVASFVKERSDAGEPMRAIVGGGFNESKEQLFGRQASLSNPRVSLVANSGTFVMDDGRKNHVPAYMVAVALGGLASGLEIGESITFKPLRVSSLDQIYESIDLDELNENGIISIEFVRNRTNTFFRIVDDVTTFNDKSDPVKAEMAVGEANDFLVSELKVQLEDQFIGTRTINTSASIIKDFIQSYLGRKKRDNEIQDFPAEDVQVIVEGNEARISMTVYPIRSFKKISVSLVYKQQTLQA

The series “cryo-EM structure” deals with the molecule itself. The experiment in a line: cryo-EM structure.
The target in series [1] is B1. The experiment in a line: cryo-EM structure.

Regarding B1, in “cryo-EM structure”, the binding result is reported as “binds”.

B2: tail tube protein of phage 812 (natural protein, Staphylococcus phage 812)
chain: MASEAKQTVHTGNTVLLMIKGKPVGRAQSASGQREYGTTGVYEIGSIMPQEHVYLRYEGTITVERLRMKKENFADLGYASLGEEILKKDIIDILVVDNLTKQVIISYHGCSANNYNETWQTNEIVTEEIEFSYLTASDKART
Take B2: the binding result in series [1] was “binds”.
